{"source": "patent US20190330347A1", "about": "(published 2019)", "molecular_target": "biotin-labeled PD-1 antigen (UniProt Q15116 25-167, biotin-labeled (site not stated))", "sequence (Q15116 25-167)": "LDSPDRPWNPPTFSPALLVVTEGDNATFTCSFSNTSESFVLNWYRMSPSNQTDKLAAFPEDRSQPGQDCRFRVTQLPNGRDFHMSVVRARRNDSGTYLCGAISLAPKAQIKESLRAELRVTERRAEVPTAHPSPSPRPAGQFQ", "assay": "BLI (Fortebio)", "data": [{"binder": "humanized H8L2 antibody (IgG-like antibody H8L2 against PD-1) (antibody) heavy: EVQLVQSGGGLVQPGGSLKLSCAASGFTFSSYGMSWVRQAPGKGLDWVATISGGGRDTYYPDSVKGRFTISRDNSKNNLYLQMNSLRAEDTALYYCARQKGEAWFAYWGQGTLVTVSSASTKGPSVFPLAPCSRSTSESTAALGCLVKDYFPEPVTVSWNSGALTSGVHTFPAVLQSSGLYSLSSVVTVPSSSLGTKTYTCNVDHKPSNTKVDKRVESKYGPPCPPCPAPEFLGGPSVFLFPPKPKDTLMITRTPEVTCVVVDVSQEDPEVQFNWYVDGVEVHNAKTKPREEQFNSTYRVVSVLTPLHQDWLNGKEYKCKVSNKGLPSSIEKTISKAKGQPREPQVYTLPPSQEEMTKNQVSLTCLVKGFYPSDIAVEWESNGQPENNYKTTPPVLDSDGSFFLYSRLTVDKSRWQEGNVFSCSVMHEALHAHYTQKSLSLSLGK light: not shown", "values": [{"measurement": "Kd", "value": 0.103, "unit": "nM"}]}]}
